Measurements as given in the nanobody polyreactivity screen of Harvey et al. (2022).

assay: yeast display, Sf9 membrane polyspecificity reagent, FACS + sequencing; frameworks hold sequencing errors
In short: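 Using colony PCR, genes from sorted yeast display clones were amplified, then sequenced on MiSeq at 2 × 250 and filtered by CDR length. The clones had been stained with 10% biotinylated, detergent-solubilized Sf9 membrane reagent for 1 hour at 4 °C and sorted by FACS into low and high (top ~1%) gates on anti-HA and streptavidin fluorescence. Polyreactivity labels come from the gate of origin.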

Row | Sequence | polyreactivity (PSR sort gate)
1 | QVQHVESGGGLVQAGGILRLSCAASGFTFPAYTMGWYRQAPGKERELVAAITSSGGNTYYADSVKGRFTISRDNAKNTLCLQMNSLKPEDTAVYYCATVSVRWPSNDHVRYDYWGQGTQVTVSS | low polyreactivity
2 | QVQHVESGGGLVQAGGNLRLSCPASGFTIYYYAMVCDRQAPGKERELVAGISKSGGITYYADSVKGRFTISRDNAKNTVYLQMNSLKPEDTAVYYCAAAEWYQFFIYRYTYEYWGQGSQVTVSS | low polyreactivity
3 | QVQHVESGGGLVQAGGSLLLSCAASGSIFYLYAMGWYRQEPGKERELVATMSSSGGSTYYADSVKGRFTISRDNAKNTVYLQMNSLKPEDTAVYYCNADYIYYGTTYEYWGQGTQVTVSS | low polyreactivity
4 | QVQHVESGGGLVQAGGSLRLGCPASGIIFIAYAMGWYRQAPGKERELVADISIGGSTNYADSVKGRFTISRDNAKYTVYLQMNSLKPEDTAVYYCAKRPKNKPVLGDYDHWGQGTQVTVSS | low polyreactivity
5 | QVQHVESGGGLVQAGGSLRLICAASGFTFHLYAMGWYRQAPGKERELVASITYSGGSTYYADSVKGRFTISRDKAKNTVYLHMNSLKAEDTAFYYCNRYSSSYSYDYWGQATQVTVSS | high polyreactivity
6 | QVQHVESGGGLVQAGGSLRLICAASGRIFLRNAMGWYRQAPGKERELVATITSRGGSTYYADAVKGRFTISRDNAKNTVYLQMNRLKPEDTAVYNCAAVPRRYRGFGYVYGGFYYWGQGTQVTVSS | low polyreactivity
7 | QVQHVESGGGLVQAGGSLRLICAASGSTFYYNAMGWYRQAPGKERELVAAISFSGGSTYYADSVKGRFTISRDNAKNTVYLQMNSLKPDDTAVYYCNRVYYAFYVYYYSTYDYWGQGTQVTLSS | low polyreactivity
8 | QVQHVESGGGLVQAGGSLRLSCAASASTLYRNAMGWYRQAPGKEREFVAAISWSGGSTYYADSVMGRFTISRDNAKNTVYLQMNSLKPEDTAVYYCNADTDRYWPYEYDYWGHGTQVTVSS | low polyreactivity
9 | QVQHVESGGGLVQAGGSLRLSCAASGFIFASYTMGWYRQAPGKERELVATISRGGSTYYADSVKGRFTISRDNAKNTVYLQMNSLKPEATAVYYCATDVGKRAGYYGGVYPDFDYWGQGTQVTVSS | low polyreactivity
10 | QVQHVESGGGLVQAGGSLRLSCAASGFIFPVNAMGWYRQAPGKERELVAAITYSTGSTYYADSVKGRFTISRDNAKNTVYLQMNSLKPEDTAVYSCAADVPPGEVVTNDYWGQGTQVTVSS | low polyreactivity
11 | QVQHVESGGGLVQAGGSLRLSCAASGFISYFYAMGWYRQAPGKERELVPVNTQSGGSTYFADSVKGRFTISRDNAKNTVYLQMNSLKPEDTAVYYCNADTVRDYPFFSVSYYYWGQGTQVTVSS | low polyreactivity
12 | QVQHVESGGGLVQAGGSLRLSCAASGFTFARYAMGWYRHAPGKERELVASISSSGDRTNYADSVKGRFTISRDNAKITVYLQMYSLKPEDTAVYYCNADFGYGWYLRYDYWGQGTQVTVSS | high polyreactivity
13 | QVQHVESGGGLVQAGGSLRLSCAASGFTFTRYAMGWYRQAPGKERELVAAISRGGTTYADSVKGRFTISRDNAKNTVYLQMNSLKPEDTAVYYCNRLRYGYPQEFGYWGQGTQVTVSS | high polyreactivity
14 | QVQHVESGGGLVQAGGSLRLSCAASGFTFVYYAMGWYRQAPGKERELVAAISRSGSRTYYADSVKGRFTISRDNAKKTVYLQMNSLKPEDTAVYYCAVAGYSPYLYRYGYWVQGTQVTVSS | high polyreactivity
15 | QVQHVESGGGLVQAGGSLRLSCAASGFTFYIYVMGWYRQAPGKERELVAAITWSGGRTYYADSVKGRFTISRDNAKNTVYLQMNSLKPEDTAVYYCAASYPGLSYHKYEYWGQGTQVTVSS | high polyreactivity
16 | QVQHVESGGGLVQAGGSLRLSCAASGGIFYPNAMGWYRQAPGKERELVAAISSGGGSTYYADSVKGRFTISRDNAKNTVYLQMNSLKPEDTSGYYCAASADRLKSDVESDYWGQGTLVTVSS | low polyreactivity
17 | QVQHVESGGGLVQAGGSLRLSCAASGIIFPRNAMGRYRQAPGKEREFVAAITLSGGRTYYADSVKGRFTISRDNAKNSVYLQMNSLKPEDTAVYYCAAYGFGPYKGVDYWGQGTQVTVSS | high polyreactivity
18 | QVQHVESGGGLVQAGGSLRLSCAASGIIFSEYAMGWYRLAPGKERELVAVISRSGGRTYYADSVKGRFTISRDNAKNTVYFQMNSLKPEDTAVYYCAVVHKTFTGDYWGQGTQVTVSS | high polyreactivity
19 | QVQHVESGGGLVQAGGSLRLSCAASGIIFYHNAMGWYRQAPVKERELVASITEIGGSTYYADSVKGLFTISRDNAKSTVYLQMNRLKPEDTAVYYCAAGTLTSFSRYDYWGQGTQVTVSS | low polyreactivity
20 | QVQHVESGGGLVQAGGSLRLSCAASGIIFYWYAMGWYRQAPGKERELVAAISRTGGSTYYADSVKGRFTISRDNAKNTVYLQMNSLKPEDTAVYYCAADDGGYWSAGHEYWGQGTQVTVSS | high polyreactivity
21 | QVQHVESGGGLVQAGGSLRLSCAASGIISYKNVMGWYRQAPGKERELVAAISGRGGSTYYADSVKGRFTISRDNAKNTVYLQMNSLKPEDTAVYYCAKYPGISGYNYWGQGTQVTVSS | high polyreactivity
22 | QVQHVESGGGLVQAGGSLRLSCAASGLIFRYYVKGWYRPAPGKERDLDAGITSSGGYTFYAESVKGRFTISRDNAKNTVYLQMNSLKPDDTAVYYCAARRPYAYARSSRYDYWGQGTQVSVSS | high polyreactivity

Row | Sequence | polyreactivity (PSR sort gate)
23 | QVQHVESGGGLVQAGGSLRLSCAASGLTFSQNAMGWYRQPQGQERELVAAISSSGTSTYYADSVKGRFSISRDNAKNTVYLQMNSVKPEDTAVYYCNAPPGTFQWQGHSDYWGQGTQVTVSS | low polyreactivity
24 | QVQHVESGGGLVQAGGSLRLSCAASGLTFTAYVMGWYRQAPGKERELVAAIRISGGSTYYADSVKGRFTISRDNAKNTVYLQMKSLQPADTAVYYCATRHRHVTATDSRIGDYWGQGTQVTVSS | low polyreactivity
25 | QVQHVESGGGLVQAGGSLRLSCAASGLTFYRYAMGWNRQAPGKERELVAAITSGGSTYYADSVKGRFTISRDNAKNTVYLQMNSLKPEDTAVYYCARQYGYQPERYGYWGQGTQVTVSS | low polyreactivity
26 | QVQHVESGGGLVQAGGSLRLSCAASGNIFAVYAKGWYRQAPGKERELVAAITTGTNTYADSVKGRFTISRDNAKNTVYLQMNSLKPEDTAVYYCAARYYRPLDYWGQGTQLTVSS | low polyreactivity
27 | QVQHVESGGGLVQAGGSLRLSCAASGRIFGYYAMGWYRQAPGKERELVAAISRGGSTNYADSVNGRFTISLDNAKNSVYFQMNSLNPEDTAVYYCAADVASARYYHGYNYWGQGTQVTLSS | high polyreactivity
28 | QVQHVESGGGLVQAGGSLRLSCAASGRIFIVNAMGWYRQAPGKERELVAAISYRGGSTYYADSVKGRFTISRDNAKNTVYLQMNSLKPEDTAVYYCAADRYSYLGYPYEYEYWGQGTQVTVSS | low polyreactivity
29 | QVQHVESGGGLVQAGGSLRLSCAASGRIFPRYAMGWYGQTPGKERELVADISRSGGSTYYADSVKGRFTISRDNAKNSVYLQMNSLKPEDTAVYYCAASQYRRVKQGNYWGQGTQVTVSS | high polyreactivity
30 | QVQHVESGGGLVQAGGSLRLSCAASGRIFQHYPMGSYRQAPGKETEFVAAISSSSGSTYADSVKGRFTISRDNAKNTVYLQMNSLNPEDTAVYYCNRDYMPFKFYGGSHDMEYWGQGTQVTVSS | low polyreactivity
31 | QVQHVESGGGLVQAGGSLRLSCAASGRIFSRYAMGWYRQAPGKERELVAAITSGGSTYYADSVKGRFTISRDNAKNTVYLQMNSLKPEDTAVSYCATRYRFGSYHSIYDYWGQGTQVTVSS | high polyreactivity
32 | QVQHVESGGGLVQAGGSLRLSCAASGRIFVPYVMGWYRQAPGKERELVASISDSDTSTYDADSVKGRFTISRDNAKTTVYLQMNSLKPEDTAVYYCNVDYWGKGTQVTVSS | low polyreactivity
33 | QVQHVESGGGLVQAGGSLRLSCAASGRIFVRNAMGWYRQARGKERELVADITNGGSTNYADSVKGRFTISRDNAKNTVYLQMNSLKPEDTAVYYCAVERYRYPFDYWGQGTQVTVSS | low polyreactivity
34 | QVQHVESGGGLVQAGGSLRLSCAASGRIFWYYAMGWYRQAPGKERELVAASTRGGITTYADSVKGRYTISRDNAKNTVYLQMNSLKPEDTAVYYCNAVRWYGRMDYWGQGTQVTVSS | low polyreactivity
35 | QVQHVESGGGLVQAGGSLRLSCAASGRIIWWYAMRRYRQPPGKERELVAVIDDSVGITYFADSVKGRFTISRDNAKNTVYLQMNSLKPVDTAVNYCARNVNAQKVLGGFDSWGKGTQVTVSS | low polyreactivity
36 | QVQHVESGGGLVQAGGSLRLSCAASGRIMARNAMGWYRQAPGKERELVADISYSGGRTYYADSVKGRFTISRDNSKNTVYFQMNRLKQEDTAVYYCADSRSSRTYHDDYWGQGTQVTVSS | high polyreactivity
37 | QVQHVESGGGLVQAGGSLRLSCAASGRIYFAYAMGWSRQAPGKERELVASITSGGSTNYADSVKGRFTISRDNGKNTLYLQMNSLKPEDTAVYYCAARSRFSNLYGRFYYWGQGTQVTVSS | high polyreactivity
38 | QVQHVESGGGLVQAGGSLRLSCAASGRTFAGYAMGWYRQAPGKEWELVSGITRGVITNYADSVKGRFTISRDNAKNTVYLQMNSLKPEDTAVYSCNARTFPVRLYTPRYGYWGQGTQVTVSS | high polyreactivity
39 | QVQHVESGGGLVQAGGSLRLSCAASGRTFDSYAMGWYRQAPGKERELVAAIYADSVKGRFTISRDNAKNTVYLQMNSLKPEDTAVYYCAAETYSGQTYLGEYDYWGQGTQVTVSS | low polyreactivity
40 | QVQHVESGGGLVQAGGSLRLSCAASGRTFDYYAMGWYRQAPGKERELVASIRSSGRTTYADSVKGRFTISRDNAKNTDYLQMNSRKPEDTAVYYCAAQWPGWWGYDYWGQGTQVTVSS | low polyreactivity
41 | QVQHVESGGGLVQAGGSLRLSCAASGRTFGGNAMGWYRQAPGKERELVAAISKSGGRTYYADSVKGRFTISRDNAKNTVYLQMNSLKPEDTAVYYCNKVLSVSQAGGFDYWGQGTQVTVSS | high polyreactivity
42 | QVQHVESGGGLVQAGGSLRLSCAASGRTFGINALGWYSQAPGNESELVADISGDGGNTYYADSVKGRFTISRDNAKNTVFLQMNSLKPEDTAVYFCATRYEKFRYDYWGQGTQVTVSS | low polyreactivity
43 | QVQHVESGGGLVQAGGSLRLSCAASGRTFNGYAMGWYRQAPGKERELVAAIRSTTGSTYYADSVKGRFTISRDNAKNTVYLQMNSLKPEETAVYYCAAAYPFYADMDYCGQGTQVTVSS | low polyreactivity
